Among the data in paper PMC3123277, “Engineering Klebsiella sp. 601 multicopper oxidase enhances the catalytic efficiency towards phenolic substrates” (BMC Biochemistry, 2011) are Km, kcat/Km and kcat values, retold here.

In data set [1] the target is T1, Klebsiella sp. 601 MCO (multicopper oxidase) (Klebsiella sp. 601, UniProt B0FMT2).
T1 sequence (B0FMT2 29-536): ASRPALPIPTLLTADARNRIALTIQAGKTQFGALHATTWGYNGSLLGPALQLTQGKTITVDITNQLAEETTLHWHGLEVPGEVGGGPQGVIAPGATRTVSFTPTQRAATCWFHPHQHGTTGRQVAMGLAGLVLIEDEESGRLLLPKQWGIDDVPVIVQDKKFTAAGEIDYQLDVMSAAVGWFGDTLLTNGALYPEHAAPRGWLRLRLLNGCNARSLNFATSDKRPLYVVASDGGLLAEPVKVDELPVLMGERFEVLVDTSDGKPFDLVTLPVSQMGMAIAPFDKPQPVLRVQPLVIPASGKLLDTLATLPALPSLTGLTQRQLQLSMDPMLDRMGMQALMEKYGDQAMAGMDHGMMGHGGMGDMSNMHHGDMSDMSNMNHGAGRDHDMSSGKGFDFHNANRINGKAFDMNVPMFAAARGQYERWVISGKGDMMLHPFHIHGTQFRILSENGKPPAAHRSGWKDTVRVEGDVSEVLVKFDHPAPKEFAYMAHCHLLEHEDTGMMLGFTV
As to the kind of experiment: spectrophotometric oxidation assay, Lineweaver-Burk. The note with it: pH 5.0, 50 mM acetate, 37°C, 0.2 mM CuSO4; read-out: Wild-type. It counts as biochemical. An excerpt: (§1) spectrophotometric oxidation assay, Lineweaver-Burk on Klebsiella sp. 601 MCO (multicopper oxidase)

The target of data set [2] is Klebsiella sp. 601 MCO (multicopper oxidase) (Klebsiella sp. 601, UniProt B0FMT2, E106F). The note with it: read-out: E106F; pH 5.0, 50 mM acetate, 37°C, 0.2 mM CuSO4.
Source text: as §1

Data set [3] has as its target Klebsiella sp. 601 MCO (multicopper oxidase) (Klebsiella sp. 601, UniProt B0FMT2, R361G/M362G/L367G/M368G/E369P/M376K/M379P). The note with it: read-out: α351-380M; pH 5.0, 50 mM acetate, 37°C, 0.2 mM CuSO4.
Source text: as §1

The subject of data set [4] is CCn1c(=NN=c2sc3cc(S(=O)(=O)O)ccc3n2CC)sc2cc(S(=O)(=O)O)ccc21. As to the kind of experiment: purified protein. The settings on record: pH 3.6, 50 mM acetic acid-sodium acetate, 37°C, 0.2 mM CuSO4.
Substrate in data set [5]: CCn1c(=NN=c2sc3cc(S(=O)(=O)O)ccc3n2CC)sc2cc(S(=O)(=O)O)ccc21
As to the kind of experiment: spectrophotometric oxidation assay, Lineweaver-Burk. It counts as biochemical, Klebsiella sp. 601. The note with it: pH 3.0, 50 mM acetic acid-sodium acetate, 37°C, 0.2 mM CuSO4, pH 3.0.
Source text: as §1

Substrate in data set [6]: COc1cc(C=NN=Cc2cc(OC)c(O)c(OC)c2)cc(OC)c1O
The description is as above. The settings on record: pH 6.8, 50 mM phosphate, 37°C, 0.2 mM CuSO4, pH 6.8. It counts as biochemical, Klebsiella sp. 601.
Source text: as §1

With `COc1cccc(OC)c1O` [DMP], the Km in data set [1] was 2.85 mM; in data set [2] it was 1.18 mM; in data set [3], 639 ± 17 µM.

For “Klebsiella sp. 601 MCO (multicopper oxidase) (Klebsiella sp. 601; E106F)”, in data set [4], the Km turned out to be 159 ± 1.0 µM and the specificity constant (kcat/Km) (as a rule, the second-order rate constant that governs catalysis at low substrate concentration) came out at 2.05e+08 M⁻¹ s⁻¹.

On to “Klebsiella sp. 601 MCO (multicopper oxidase) (Klebsiella sp. 601; E369P/L367G/M362G/M368G/M376K/M379P/R361G)”, for which the Km in data set [4] was 284 ± 6.2 µM.

B1: Klebsiella sp. 601 MCO (multicopper oxidase) (Klebsiella sp. 601) (protein)
chain: T1 sequence (B0FMT2 29-536)
For B1, in data set [5], the Km was 539 ± 5.0 µM and the kcat/Km worked out at 1.27e+08 M⁻¹ s⁻¹. In data set [6], the Km is 11.67 ± 0.2 µM; the kcat (in general, the number of substrate molecules converted per active site and unit of time at saturation) was determined as 10.8 ± 0.1 s⁻¹; the kcat/Km stood at 930000 M⁻¹ s⁻¹.
